Drawing on PMC11867022, this text covers Kd for 2 sequences.

This data set concerns S9.6 antibody (anti-DNA-RNA hybrid) (mouse). Nature of the data set: SPR. The following applies: single-cycle kinetics, pH 7.0, SPR: 10 mM HEPES pH 7.0, 15 mM MgCl2, 80 mM NaCl, S9.6 on CM5 chip, EMSA: 200 nM nucleic acid, 80 ug/mL S9.6, 30 min room temperature, 6% PAGE in 0.5X TBE. On the technique in general: In EMSA bound probe runs differently from free probe, usually more slowly.

On to “AGTGAATTCTACCAGTGCCATAGAGGAGAGGAGAGGAGGGGAGGTTTACCTCCCCTCCTCTCCTCTCCCTTTGCCTCTCCTCTCCTCCCCTCCGT / UAUGGCACUGGUAGAAUUCACU [Switch A (30% TAT)/miR-183 hybrid]”, for which the dissociation constant Kd (in general, the constant that tells how readily two partners part at equilibrium) (ka 5.99e5 1/Ms, kd 1.74e-4 1/s) is 0.291 nM.
“AAGAAAAGAGAAGAAGAGAACACCTTCTCTTCTTCTCTTTTCTTAGACCCCTATCACGATTAGCATTAA / UUAAUGCUAAUCGUGAUAGGGGU [Switch B (70% TAT)/miR-155 hybrid]” gave a Kd of 0.144 nM. This counts as sub-nanomolar.
